Data reported in patent US20220090139A1.

Target: integrin molecules on human cells (human)
Assay: cell-based or functional assay

B1: RGD-Hoc, P18056 1-376 (protein)
chain: CDCRGDCFCSAMTFTVDITPKTPTGVIDETKQFTATPSGQTGGGTITYAWSVDNVPQDGAEATFSYVLKGPAGQKTIKVVATNTLSEGGPETAEATTTITVKNKTQTTTLAVTPASPAAGVIGTPVQFTAALASQPDGASATYQWYVDDSQVGGETNSTFSYTPTTSGVKRIKCVAQVTATDYDALSVTSNEVSLTVNKKTMNPQVTLTPPSINVQQDASATFTANVTGAPEEAQITYSWKKDSSPVEGSTNVYTVDTSSVGSQTIEVTATVTAADYNPVTVTKTGNVTVTAKVAPEPEGELPYVHPLPHRSSAYIWCGWWVMDEIQKMTEEGKDWKTDDPDSKYYLHRYTLQKMMKDYPEVDVQESRNGYIIHKTALETGIIYTYPKLAAALEHHHHHH
- luciferase activity: 5 fold
